From publication doi:10.1101/2025.06.24.661325, “Structural and functional analysis of the Mycobacterium tuberculosis MmpS5L5 efflux pump presages a pathway to increased bedaquiline resistance” (bioRxiv, 2025) come the findings set out here.

In assay [1] the target is T1, M. tuberculosis MmpL5 Δ494-688 with C-terminal GFP-FLAG tag (M. tuberculosis, UniProt P9WJV1 1-964, Δ494-688).
T1 construct: also called MmpL5ΔCC; MmpL5 ΔCC
Briefly: cryo-EM structure. To be noted: both partners purified.

In assay [2] the target is T1, M. tuberculosis MmpL5 Δ494-688 with …. Kind of assay: co-purification (anti-FLAG affinity, then SEC). The settings on record: partners not purified.

B1: M. smegmatis acyl carrier protein AcpM (MSMEG_4326) (natural protein)
chain: MAATQEEIIAGLAEIIEEVTGIEPSEVTPEKSFVDDLDIDSLSMVEIAVQTEDKYGVKIPDEDLAGLRTVGDVVAYIQKLEEENPEAAAALREKFAADQ
B1: the binding result in assay [1] is reported as “binds”.

B2: M. tuberculosis MmpS5 (natural protein)
chain: MIGTLKRAWIPLLILVVVAIAGFTVQRIRTFFGSEGILVTPKVFADDPEPFDPKVVEYEVSGSGSYVNINYLDLDAKPQRIDGAALPWSLTLKTTAPSAAPNILAQGDGTSITCRITVDGEVKDERTATGVDALTYCFVKSA
With B2, in assay [2], the binding result is listed as “binds”.
